Assay results reported in the nanobody polyreactivity screen of Harvey et al. (2022).

Assay: yeast display, Sf9 membrane polyspecificity reagent, FACS + sequencing; frameworks hold sequencing errors
Summary of the method: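 Using colony PCR, genes from sorted yeast display clones were amplified, then sequenced on MiSeq at 2 × 250 and filtered by CDR length. The clones had been stained with 10% biotinylated, detergent-solubilized Sf9 membrane reagent for 1 hour at 4 °C and sorted by FACS into low and high (top ~1%) gates on anti-HA and streptavidin fluorescence. Polyreactivity labels come from the gate of origin.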

Row | Sequence | polyreactivity (PSR sort gate)
1 | QVQLQESGGGLVQAGGSLRLSCAASGSISNLIAKGWYRQAQGKEREFVAAIGPGANTNYADSVKGRFTISRDNANNTVSLQMNSLKPDDTAVFYCAVDYYGVAVYHYWGQGTQVTVSS | high polyreactivity
2 | QVQLQESGGGLVQAGGSLRLSCAASGSIYDDTYMGWSRQAPGKERELVATIDSGSTTNYADSVKGRITISRDNAKNTVYLQMNSLKPEDTAVYYCAAADSHIDYFDYWGQGTQVTVSS | low polyreactivity
3 | QVQLQESGGGLVQAGGSLRLSCAASGTIFCLWAMGWYCQAPGKERELVASISSGGTTYHADSVKGRFTISRDNAKNTVYLQMNSLKPEDTAVYYSAAFYVATAKLGYWGQGSQVTVSS | low polyreactivity
4 | QVQLQESGGGLVQAGGSLRLSCAASGTIFDKDDMGWYRQAPGKEREFVAGIDRGGTTNCAGSVKGRFTISRDNAKNTVYLQMISLKPEDTEVYYCAAYYPDIYPFIYRGQGTQVTVSS | high polyreactivity
5 | QVQLQESGGGLVQAGGSLRLSCAASGTIFRISDMGSYRQAPGKEREFVAAITYGANTYYADSGKGRFTISRDNAKNTVYLQMNSLIPEDTAVYYCAVPPVKETILDYWGQGTQVTVSC | low polyreactivity
6 | QVQLQESGGGLVQAGGSLRLSCAASGTILYSLGMGWYRQAPGKRREFVASITWGTTTNYAESVKGRFTISRDNAKNTVYPQMNSLKPDVTAVYDCAAPPFGDSSYHYWGQGTQVTVSS | low polyreactivity
7 | QVQLQESGGGLVQAGGSLRLSCAASGTISPLPAMAWYRQAPGKEREFVAGIDTGAITNYADSVKGRFTISRANAKNTVYLQMNSLIPEDTAVYYCAVFPAAYDYYERYYTYWGQGTQVTVSS | low polyreactivity
8 | QVQLQESGGGLVQAGGSLRLSCAASGTISPLPAMGWYRQAPGKEREFVAGIDTGAITNYADSVKGRFTISRDNAKNTVYLQMNSLIPEDTAVYYCAVFPAAYDYYERYYTYWGQGTQVTVSS | low polyreactivity
9 | QVQLQESGGGLVQAGGSLRLSCAASGTISSSDAMGWYRQAPGKEREFVATIASGTTTYYADSVKGSFTISRDNAENSVYLQTNSLKPEDTAVYYCAAPTIQIYPFYYWGQGTQVTVSS | high polyreactivity
10 | QVQLQESGGGLVQAGGSLRLSCAASGTISVHASMGWYRQAPGKERELVAGITDGANTYYADSVKGRFTISRDNSKNTVYLQMNSLKPEVTAVYYCAAYYGTEVHFTYWGLGTQVTVSS | low polyreactivity
11 | QVQLQESGGGLVQAGGSLRLSCAASGTIYWLWAMGWYCLAPGKERELVASISSGGTTYHADSVKGRFTISRDNAKYSVYLQMNSLKPEDTAVFYSAAFYVASAKLGYWGQGSQVTVSS | low polyreactivity
12 | QVQLQESGGGLVQAGGSLRLSCAASGTLSPLPAMGWYRQAPGKEREFVPGIDTGAITNYADSLKGRFTISRDNAKYTVYLQMNSLKPEDTAVYYCAVFPAAYLYYERYDTYWGQGTQVTVSS | low polyreactivity
13 | QVQLQESGGGLVQAGGSLRLSCAASGYISHADEMGWYRQAPGKEHELVASISNGGSTNYADSVKGRFTISRDNAKNTVYLQMNSLKSEDTAVYYCAAWTGQVDIHYYWGQGTQETVSS | low polyreactivity
14 | QVQLQESGGGLVQAGGSLRLSCAASGYISLAQTIGWYRQAQGKEREFVASIALGSSTYYTDSVKGSFTISRDNAKTTVYLQMNSLKPEDTAVYYCAARVGASYAHDYWGQGTQVTLSS | low polyreactivity
15 | QVQLQESGGGLVQAGGSLRLSCAASGYISQSSVMGWYRQAPGKERDFVASISYGATTYYADSVKGRFTISRDNAKNTVYLQTNSPKPEDTAVYYCAVGVKRGFSHRYWGQGTQVTVSS | high polyreactivity
16 | QVQLQESGGGLVQAGGSLRLSCAASGYISSWYPMGWYRQAPGKEREFVATIAPGATTYYADSVKGRFTISRDYAKNTVYLQMNSLKPEDTAVYYCAAGPLNNDFYSYWGQGTQVTVSS | low polyreactivity
17 | QVQLQESGGGLVQAGGSLRLSCAASGYISTFSSEMGWYRQAPGKERELVASIAPGCTTSYADSVKGRFTISRDNAKNTVYLQMNSLKPEDTAVYYCAVDFTVPASFGYWGQGTQVTVSS | high polyreactivity
18 | QVQLQESGGGLVQAGGSLRLSCAASGYISTWYPMGWYRQAPGKEREFVATIAPGATTYYADSVKGRFTISRDYAKNSVYLQMNSLKPEDTAVYYCAAGPENNDFYSYWGQGTQVTVSS | low polyreactivity
19 | QVQLQESGGGLVQAGGSLRLSCAGSGYIFPRIYMGWYRQAPGKEREFDAGISYDAITNYADSVKGRFTISLDNAKNTVYLQMNSLKPEDTAVYYCAVSYYGTPLFTYWGQGTQVTVSS | high polyreactivity
20 | QVQLQESGGGLVQAGGSLRLSCASSGSISILQSMGWYRQAPGKERELVAGINWGATTYYADSVKGRLTTSRDYAKNTVYLQMNSLKPEDTGVYYCAVPTYYTYPLLYWGQGTQVTVSS | low polyreactivity
21 | QVQLQESGGGLVQAGGSLRLSCAVSGTIFFPLDMGWYRQAPGREREYVAAIAEGTSTYYADSVKGRFTISRDNAKNTVYPQMYSLNPEDTAVYYCAAYRSTPQQFHYWGQGTQVTVSS | high polyreactivity
22 | QVQLQESGGGLVQAGGSLRLSSAASGPISRRSTMGWYRQAPGKERELVTAITRGTNTNYADSVKGRFTISRDNAMNTEYLQMNSLKPEDTAVYYCAAYGVLKPSRGDAVFHRYWGQGTQVTVSS | low polyreactivity

Row | Sequence | polyreactivity (PSR sort gate)
23 | QVQLQESGGGLVQAGGSLRPLCAAGGTIFVSVNMRLYRHAPGEEREFVASITQGATTNYADSLIGRFTISRDNAKNTVYLLMNCQKPEDTEVYYCAVHESGGITFTYWGQGTQVTVSS | high polyreactivity
24 | QVQLQESGGGLVQAGGSLRPSCAASGSISDGVRMGWYRQAPGEEGELVATTVLGATTNYADSVKGRFTISRGNAKNTVYLLMTSLKAEATAVYYCAAPLRYDKGFSYWGQGTQVTVSS | low polyreactivity
25 | QVQLQESGGGLVQAGGSLRPSCAASGSISDRWWMGLYRQAPGKERESVAGINDGASTYYADSVKGRFTISCDNAKNTVYLQMNSLKPEDTAVYYCAVYVFITGCLNYWGQGTQVTVSS | high polyreactivity
26 | QVQLQESGGGLVQAGGSLRPSCAPSGSISDGDPMAWYRQAPGEERELVATTVLGATTNYADSVKGRFTISRGNAENTVYLERYWLKPVETAVYYCAAPLRYDKGFSYWGQGTQVTVSS | low polyreactivity
27 | QVQLQESGGGLVQAGGSLRQSCAASGYIFQPFYMGWYRQAPGKERELVAGISVGGNTYYADSVKGRFTISRDNAKNSVFLQMNSLKPEDTAVYYCAVQFVLQDKYVYWGQGTQVTVSS | low polyreactivity
28 | QVQLQESGGGLVQAGGSPRLSCAASDNIFPDSVMCWSRQAPGKERELVATIGFGATTNYADSVKGRFTISRDNAKNTVYLQMNSLKPEDTAVYYCAADPLNYEYFCYWGQGTQVTVSS | low polyreactivity
29 | QVQLQESGGGLVQAGGSQRLSCAASGTITVLYKMGRFRQAPGKEREFVASINYGTSTYYADSVKGRFTLSRDSAKNTVYLQMNSLKPEDTAVYYCAAAYRWQDVYRYWGQGTQVTVSS | low polyreactivity
30 | QVQLQESGGGLVQAGGSQRLTCAASGYIFYFQYMGWYRPAPGKEREFVAAISDGANTNYADSVKGRFTISRDNAKNTEYLQMNSLKPEDTAVYYCSVYADENYYYIYWGQGTQVTVSS | low polyreactivity
31 | QVQLQESGGGLVQAGGTLRLSCQASGSIFVSVTMGWYRQAPGKERELVASIGRGSTTNHADSVKGRFTISRDNAKNIVYLLMNSLKPEDTAVYYCAALESYGKYHGYWGQGTQVTVSS | low polyreactivity
32 | QVQLQESGGGMVQAGGSLRLSCAASGYISWADNMAWYRQAPGKERELVAGIGYGSTTYYADSVKGRFTISRDNAKNTAYLQMNSLKPEDTSVYYCAVGWYRDTAYKYWGQGTQVTVSS | low polyreactivity
33 | QVQLQESGGGMVQAGGSLRLSRATSGTISATKGMCRYRQAPGKERELVAGINYGGNTNYADNVKGRFTISRDNAKNTVYLQMNSLKPGDTAVYYCAAEPRGVTDLGYWGQGTQVTVSS | low polyreactivity
34 | QVQLQESGGGQVQAGGSLRLSCAASGNNSVTGFMGRYRQAPGKERELVASIGIGGTTYYADSVKGRFSISRDNAKNTVYLQMNSLKPEDTAVYYCAARYLYYAYSYWGQGTQVTVSS | low polyreactivity
35 | QVQLQESGGGQVQAGGSLRLSCAASGTISDSGLMGWYRQAPGKERELVAGISSGGITNYADSVKGRFTISRDNAKNTVYLQMNILKPEDTAVYWGQGTQVTVSI | low polyreactivity
36 | QVQLQESGGGQVQAGGSLRLSCAASGYISTHYFMGWYRQAPGKDREFVAGISNGSITNYADSVKGRFTISRDNARNTVYLQMNSLKPEDTAVYYGAAYDWTYVRFGYWGQGTQVTVSG | high polyreactivity
37 | QVQLQESGGGQVQAGGSLRLSCAPSGYISSWYPKGWYRQAPGKEPEFVATIAPGATNYYADSVKGRFTISRDYAKNTVYQQMNSLKPEDTAVYYCAVVSNGRRERYYYWGQGTQVTVSS | low polyreactivity
38 | QVQLQESGGGQVQAGGSLRLSCEASGTIFLYAFMGWYRQAPGKERELVAAIDVGTTTNYADSVKGRFTISRDNAKNTVYLQMNSLKPEDTAVYYCAANLGYLDDLGYWGQGTQVTVSS | low polyreactivity
39 | QVQLQESGGGQVQAGGSLRPSCAASGSISDRVPMGWYRQAPGEERELVATTVLGATTNYADSVKGRFTISRGNAKNTVYLQMNSLKPEETAVYYCAAPLRYDKGFSYWGEGTQVTVSS | low polyreactivity
40 | QVQLQESGGGVQAGGSLRLSCAASGSISAPILMGWYRQAPGKERELVAGIGGGANTYYADSVKGRFTFSRDNAKYTVYLQMYSLKPEDTAVYYCAAGDYYWTNFGYWGQGTQVTASS | high polyreactivity
41 | QVQLQESGGLVQAGGLRLSCAASGYVSYQEAMGWYRQAPGKEREIVATISFGANTNYADSVKGRFTISRDNAKNTVYLQMNSLKPEDTAVYYCAAESLFDVYYGYWGQGTQVTVSS | low polyreactivity
42 | QVQLQESGGLVQAGGLRLSCEASGSVSYQEGMGWYRQATGKERELVATISFGANTNYADSVKGRFTISRDNAKNTVYLQMNSLKTEDTAVFYCAADSLFDDYYGYWGQGTQVTVSS | low polyreactivity
43 | QVQLQESGGRLVQAGGSLRLSCAASGNIFPTVSMGWYRQAPGKDREFVVTIDPGSNTYYADSAKGRFTISRDNAQNTVYLQMNSPKPEDTAVYYCAVVFADWATYGYWGQGTQVTVSS | high polyreactivity
44 | QVQLQESGGRLVQAGGSLRLSCAATGTIFTERFMGWYRQAPGKERELVAVISPGTSTNYADSVKGRFTISRDNAKNTVYLQMNSLKPEDTAVYYCAADWSTGNTLPYWGQGTQVTVSS | high polyreactivity
